Results as given in patent US20190024095A1.

Target: CD19 on Raji B cells (UniProt P15391)
Test: cell-based or functional assay

Sequence of UniProt P15391 (P15391 20-556 limits assumed): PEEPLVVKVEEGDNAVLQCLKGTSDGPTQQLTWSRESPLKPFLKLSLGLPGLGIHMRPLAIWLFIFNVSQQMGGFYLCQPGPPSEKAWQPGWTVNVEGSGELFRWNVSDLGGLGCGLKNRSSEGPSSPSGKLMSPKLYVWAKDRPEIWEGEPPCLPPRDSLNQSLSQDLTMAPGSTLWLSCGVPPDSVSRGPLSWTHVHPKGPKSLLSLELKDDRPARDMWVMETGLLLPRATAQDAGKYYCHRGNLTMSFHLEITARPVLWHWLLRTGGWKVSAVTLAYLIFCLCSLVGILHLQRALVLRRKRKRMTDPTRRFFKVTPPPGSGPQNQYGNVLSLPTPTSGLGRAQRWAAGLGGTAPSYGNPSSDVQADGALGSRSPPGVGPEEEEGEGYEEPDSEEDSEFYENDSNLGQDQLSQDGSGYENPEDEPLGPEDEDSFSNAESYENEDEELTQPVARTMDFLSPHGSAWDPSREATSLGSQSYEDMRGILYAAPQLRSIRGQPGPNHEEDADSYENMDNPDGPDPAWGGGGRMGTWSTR

Q: Which change in IL-12 expression (NFAT promoter, 3'-UTR not responsive to CAR stimulation) does the source give for “anti-CD19 CAR (anti-CD19 CAR cassette as described in WO 2012/079000), expressed on transduced T-cells” here?
A: 50 fold

Q: And the change in IL-12 expression (NFAT promoter, RDE1 (Gold1))?
A: 168 fold

Q: What about the change in IL-12 expression (minP promoter, RDE1 (Gold1)) of the same substance?
A: 6.3 fold

Q: And the change in activated cells in the population (CD25, CD69; GFP-RDE1 bicistronic construct)?
A: 0.9 to 84.8%

Q: And the change in activated cells in the population (CD25, CD69; GFP-RDE2.1 bicistronic construct)?
A: 3.9 to 12.1%

Q: And the change in activated cells in the population (CD25, CD69; doubly transduced T-cells)?
A: 0.9 to 56.9%

Q: And the change in activated cells in the population (CD25, CD69; singly transduced, bicistronic construct)?
A: 3.6 to 5.8%

Q: What about the increase in bioluminescence (MinP promoter, RDE1) of the same substance?
A: 4.1 fold

Q: What about the increase in bioluminescence (MinP promoter, RDE2) of the same substance?
A: 1.8 fold

Q: What about the increase in bioluminescence (MinP promoter, RDE3) of the same substance?
A: 1.4 fold

Q: And the increase in bioluminescence (NFAT promoter, RDE1)?
A: 8.5 fold

Q: What about the increase in bioluminescence (NFAT promoter, RDE2) of the same substance?
A: 3.1 fold

Q: And the increase in bioluminescence (NFAT promoter, RDE3)?
A: 1.3 fold

Q: And the increase in fluorescence (GFP-RDE1)?
A: 6.5%

Q: And the increase in fluorescence (GFP-RDE2, doubly transduced T-cells)?
A: 19.5 to 42.5%
